Reference: patent US20140087995A1 (published 2014)
Values belong to the binder of their own block, whether it stands above or below them. Numbered stars: 1 amine (or outer) side, 2 acyl side, 3 side chain; on linkers, the order of the positions; unused ones are H or OH. Bridge positions count the residues as written; N and C are the ends. Side chains are listed from the residue outwards. Ends that are not written are not given here. * marks the point of attachment. C20 diacid = O=C(O)CCCCCCCCCCCCCCCCCCC(=O)*; γGlu = O=C(O)[C@H](CCC(=O)[*:2])N[*:1]; AEEA = NCCOCCOCC(=O)O

What was measured:
[1] = target: T1, rat calcitonin receptor (rat, UniProt P32214 25-516); test: ratio of binding IC50s: rat calcitonin receptor over rat amylin receptor (reference)
T1 construct: whole, on cells; also called rCTR; rat calcitonin (a) receptor
T1 sequence (looked up): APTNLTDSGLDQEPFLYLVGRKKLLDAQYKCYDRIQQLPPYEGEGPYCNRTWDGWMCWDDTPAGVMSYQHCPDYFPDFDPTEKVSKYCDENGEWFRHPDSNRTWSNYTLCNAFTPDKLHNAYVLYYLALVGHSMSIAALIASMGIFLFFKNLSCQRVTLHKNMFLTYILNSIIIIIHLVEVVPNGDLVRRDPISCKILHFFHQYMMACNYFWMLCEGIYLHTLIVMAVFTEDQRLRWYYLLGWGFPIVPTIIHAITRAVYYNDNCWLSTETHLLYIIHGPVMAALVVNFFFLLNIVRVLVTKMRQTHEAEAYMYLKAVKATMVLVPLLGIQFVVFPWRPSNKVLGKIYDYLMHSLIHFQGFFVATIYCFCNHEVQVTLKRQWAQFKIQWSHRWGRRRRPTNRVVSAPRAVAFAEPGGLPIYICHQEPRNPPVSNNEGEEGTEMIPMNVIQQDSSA

[2] = target: T2, human calcitonin receptor (human, UniProt P30988 25-474); test: ratio of binding IC50s: human calcitonin receptor over human amylin receptor (reference)
T2 construct: whole, on cells; also called hCTR; hCT
T2 sequence (looked up): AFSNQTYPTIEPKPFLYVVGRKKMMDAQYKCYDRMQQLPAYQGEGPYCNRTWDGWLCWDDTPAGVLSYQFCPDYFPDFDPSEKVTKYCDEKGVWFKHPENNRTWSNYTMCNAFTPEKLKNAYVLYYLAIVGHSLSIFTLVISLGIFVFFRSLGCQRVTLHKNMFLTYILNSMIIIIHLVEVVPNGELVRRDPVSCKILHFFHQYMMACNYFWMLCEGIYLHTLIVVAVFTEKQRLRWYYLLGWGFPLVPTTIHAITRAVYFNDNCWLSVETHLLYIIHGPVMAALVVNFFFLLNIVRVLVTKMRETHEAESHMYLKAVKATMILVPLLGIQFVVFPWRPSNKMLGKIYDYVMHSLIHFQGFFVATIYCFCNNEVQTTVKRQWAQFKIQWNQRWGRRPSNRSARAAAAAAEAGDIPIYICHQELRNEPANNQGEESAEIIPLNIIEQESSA
Procedure, shortened: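 Scintillation proximity competition binding on cell membranes at 35 ng/μL with SPA beads, in 50 mM Hepes pH 7.4, 1 mM CaCl2, 5 mM MgCl₂, 0.1% OA, 0.02% Tween20. Incubated 120 min at 25° C with shaking. IC₅₀ from one-site competition fit.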

[3] = target: T1, rat calcitonin receptor; test: SPA competition with 125I-calcitonin, membranes of BHK cells with rat calcitonin receptor (Assay VIII)
[4] = target: T3, rat amylin receptor (rat calcitonin receptor + rat RAMP 3) (rat, UniProt P32214 25-516; Q9JJ73 23-147); test: SPA competition with 125I-rat amylin, membranes of BHK cells with rat calcitonin receptor + rat RAMP3 (Assay VI)
T3 construct: whole, on cells; also called rAmylin-R; rat amylin 3(a) receptor
T3 sequence (looked up) 1: T1 sequence (looked up)
T3 sequence (looked up) 2: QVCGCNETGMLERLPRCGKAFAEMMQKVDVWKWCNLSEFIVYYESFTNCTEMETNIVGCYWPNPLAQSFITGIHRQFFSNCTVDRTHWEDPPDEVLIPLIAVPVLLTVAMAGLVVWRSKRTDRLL

B1: N^ε1-[2-[2-[2-[[(4S)-4-carboxy-4-(19-carboxynonadecanoylamino)butanoyl]amino]ethoxy]ethoxy]acetyl]-[His14,Arg17,Pro21,Pro27,His34]-h-amylin (peptide)
peptide: K([AEEA-γGlu-C20 diacid])CNTATCATQRLAHFLRHSSPNFGAIPSSTNVGHNTY-NH2
modifications: disulfide 2-7; N-terminus assumed
SMILES: CC[C@H](C)[C@H](NC(=O)[C@H](C)NC(=O)CNC(=O)[C@H](Cc1ccccc1)NC(=O)[C@H](CC(N)=O)NC(=O)[C@@H]1CCCN1C(=O)[C@H](CO)NC(=O)[C@H](CO)NC(=O)[C@H](Cc1c[nH]cn1)NC(=O)[C@H](CCCNC(=N)N)NC(=O)[C@H](CC(C)C)NC(=O)[C@H](Cc1ccccc1)NC(=O)[C@H](Cc1c[nH]cn1)NC(=O)[C@H](C)NC(=O)[C@H](CC(C)C)NC(=O)[C@H](CCCNC(=N)N)NC(=O)[C@H](CCC(N)=O)NC(=O)[C@@H](NC(=O)[C@H](C)NC(=O)[C@@H]1CSSC[C@H](NC(=O)[C@@H](N)CCCCNC(=O)COCCOCCNC(=O)CC[C@H](NC(=O)CCCCCCCCCCCCCCCCCCC(=O)O)C(=O)O)C(=O)N[C@@H](CC(N)=O)C(=O)N[C@@H]([C@@H](C)O)C(=O)N[C@@H](C)C(=O)N[C@@H]([C@@H](C)O)C(=O)N1)[C@@H](C)O)C(=O)N1CCC[C@H]1C(=O)N[C@@H](CO)C(=O)N[C@@H](CO)C(=O)N[C@H](C(=O)N[C@@H](CC(N)=O)C(=O)N[C@H](C(=O)NCC(=O)N[C@@H](Cc1c[nH]cn1)C(=O)N[C@@H](CC(N)=O)C(=O)N[C@H](C(=O)N[C@@H](Cc1ccc(O)cc1)C(N)=O)[C@@H](C)O)C(C)C)[C@@H](C)O
notes: synthetic analogue of human amylin; also called compound 80
Ratio rCT/rAmylin binding [1]: 36.2
Ratio hCT/hAmylin binding [2]: 68.1
IC50 [3]: 60.4 nM
IC50 [4]: 1.67 nM

B2: N^ε1-[2-[2-[2-[[(4S)-4-carboxy-4-(19-carboxynonadecanoylamino)butanoyl]amino]ethoxy]ethoxy]acetyl]-[Lys14,Arg17,Pro21,Pro27,Pro31]-h-amylin (peptide)
peptide: K([AEEA-γGlu-C20 diacid])CNTATCATQRLAKFLRHSSPNFGAIPSSTPVGSNTY-NH2
modifications: disulfide 2-7; N-terminus assumed
SMILES: CC[C@H](C)[C@H](NC(=O)[C@H](C)NC(=O)CNC(=O)[C@H](Cc1ccccc1)NC(=O)[C@H](CC(N)=O)NC(=O)[C@@H]1CCCN1C(=O)[C@H](CO)NC(=O)[C@H](CO)NC(=O)[C@H](Cc1c[nH]cn1)NC(=O)[C@H](CCCNC(=N)N)NC(=O)[C@H](CC(C)C)NC(=O)[C@H](Cc1ccccc1)NC(=O)[C@H](CCCCN)NC(=O)[C@H](C)NC(=O)[C@H](CC(C)C)NC(=O)[C@H](CCCNC(=N)N)NC(=O)[C@H](CCC(N)=O)NC(=O)[C@@H](NC(=O)[C@H](C)NC(=O)[C@@H]1CSSC[C@H](NC(=O)[C@@H](N)CCCCNC(=O)COCCOCCNC(=O)CC[C@H](NC(=O)CCCCCCCCCCCCCCCCCCC(=O)O)C(=O)O)C(=O)N[C@@H](CC(N)=O)C(=O)N[C@@H]([C@@H](C)O)C(=O)N[C@@H](C)C(=O)N[C@@H]([C@@H](C)O)C(=O)N1)[C@@H](C)O)C(=O)N1CCC[C@H]1C(=O)N[C@@H](CO)C(=O)N[C@@H](CO)C(=O)N[C@H](C(=O)N1CCC[C@H]1C(=O)N[C@H](C(=O)NCC(=O)N[C@@H](CO)C(=O)N[C@@H](CC(N)=O)C(=O)N[C@H](C(=O)N[C@@H](Cc1ccc(O)cc1)C(N)=O)[C@@H](C)O)C(C)C)[C@@H](C)O
notes: synthetic analogue of human amylin; also called compound 74
Ratio rCT/rAmylin binding [1]: 22.3
Ratio hCT/hAmylin binding [2]: 101
IC50 [3]: 109 nM
IC50 [4]: 4.89 nM

B3: N^ε1-[2-[2-[2-[[(4S)-4-carboxy-4-(19-carboxynonadecanoylamino)butanoyl]amino]ethoxy]ethoxy]acetyl]-[His14,Arg17,Pro21,Pro27,Pro34]-h-amylin (peptide)
peptide: K([AEEA-γGlu-C20 diacid])CNTATCATQRLAHFLRHSSPNFGAIPSSTNVGPNTY-NH2
modifications: disulfide 2-7; N-terminus assumed
SMILES: CC[C@H](C)[C@H](NC(=O)[C@H](C)NC(=O)CNC(=O)[C@H](Cc1ccccc1)NC(=O)[C@H](CC(N)=O)NC(=O)[C@@H]1CCCN1C(=O)[C@H](CO)NC(=O)[C@H](CO)NC(=O)[C@H](Cc1c[nH]cn1)NC(=O)[C@H](CCCNC(=N)N)NC(=O)[C@H](CC(C)C)NC(=O)[C@H](Cc1ccccc1)NC(=O)[C@H](Cc1c[nH]cn1)NC(=O)[C@H](C)NC(=O)[C@H](CC(C)C)NC(=O)[C@H](CCCNC(=N)N)NC(=O)[C@H](CCC(N)=O)NC(=O)[C@@H](NC(=O)[C@H](C)NC(=O)[C@@H]1CSSC[C@H](NC(=O)[C@@H](N)CCCCNC(=O)COCCOCCNC(=O)CC[C@H](NC(=O)CCCCCCCCCCCCCCCCCCC(=O)O)C(=O)O)C(=O)N[C@@H](CC(N)=O)C(=O)N[C@@H]([C@@H](C)O)C(=O)N[C@@H](C)C(=O)N[C@@H]([C@@H](C)O)C(=O)N1)[C@@H](C)O)C(=O)N1CCC[C@H]1C(=O)N[C@@H](CO)C(=O)N[C@@H](CO)C(=O)N[C@H](C(=O)N[C@@H](CC(N)=O)C(=O)N[C@H](C(=O)NCC(=O)N1CCC[C@H]1C(=O)N[C@@H](CC(N)=O)C(=O)N[C@H](C(=O)N[C@@H](Cc1ccc(O)cc1)C(N)=O)[C@@H](C)O)C(C)C)[C@@H](C)O
notes: synthetic analogue of human amylin; also called compound 68
Ratio rCT/rAmylin binding [1]: 122
Ratio hCT/hAmylin binding [2]: 64.4
IC50 [3]: 28.5 nM
IC50 [4]: 0.234 nM

More lines, in order of falling IC50 [3], values ahead:

Ratio rCT/rAmylin binding [1]: 178
Ratio hCT/hAmylin binding [2]: 51.7
IC50 [3]: 50.3 nM
IC50 [4]: 0.283 nM
B4: N^ε1-[2-[2-[2-[[(4S)-4-carboxy-4-(19-carboxynonadecanoylamino)butanoyl]amino]ethoxy]ethoxy]acetyl]-[Ser14,Arg17,Pro21,Pro27,Pro31]-h-amylin (peptide)
peptide: K([AEEA-γGlu-C20 diacid])CNTATCATQRLASFLRHSSPNFGAIPSSTPVGSNTY-NH2
modifications: disulfide 2-7; N-terminus assumed
SMILES: CC[C@H](C)[C@H](NC(=O)[C@H](C)NC(=O)CNC(=O)[C@H](Cc1ccccc1)NC(=O)[C@H](CC(N)=O)NC(=O)[C@@H]1CCCN1C(=O)[C@H](CO)NC(=O)[C@H](CO)NC(=O)[C@H](Cc1c[nH]cn1)NC(=O)[C@H](CCCNC(=N)N)NC(=O)[C@H](CC(C)C)NC(=O)[C@H](Cc1ccccc1)NC(=O)[C@H](CO)NC(=O)[C@H](C)NC(=O)[C@H](CC(C)C)NC(=O)[C@H](CCCNC(=N)N)NC(=O)[C@H](CCC(N)=O)NC(=O)[C@@H](NC(=O)[C@H](C)NC(=O)[C@@H]1CSSC[C@H](NC(=O)[C@@H](N)CCCCNC(=O)COCCOCCNC(=O)CC[C@H](NC(=O)CCCCCCCCCCCCCCCCCCC(=O)O)C(=O)O)C(=O)N[C@@H](CC(N)=O)C(=O)N[C@@H]([C@@H](C)O)C(=O)N[C@@H](C)C(=O)N[C@@H]([C@@H](C)O)C(=O)N1)[C@@H](C)O)C(=O)N1CCC[C@H]1C(=O)N[C@@H](CO)C(=O)N[C@@H](CO)C(=O)N[C@H](C(=O)N1CCC[C@H]1C(=O)N[C@H](C(=O)NCC(=O)N[C@@H](CO)C(=O)N[C@@H](CC(N)=O)C(=O)N[C@H](C(=O)N[C@@H](Cc1ccc(O)cc1)C(N)=O)[C@@H](C)O)C(C)C)[C@@H](C)O
notes: synthetic analogue of human amylin; also called compound 73

Ratio rCT/rAmylin binding [1]: 39.7
Ratio hCT/hAmylin binding [2]: 66.7
IC50 [3]: 33.4 nM
IC50 [4]: 0.842 nM
B5: N^ε1-[2-[2-[2-[[(4S)-4-carboxy-4-(19-carboxynonadecanoylamino)butanoyl]amino]ethoxy]ethoxy]acetyl]-[His14,Arg17,Pro21,Pro27,Pro31]-h-amylin (peptide)
peptide: K([AEEA-γGlu-C20 diacid])CNTATCATQRLAHFLRHSSPNFGAIPSSTPVGSNTY-NH2
modifications: disulfide 2-7; N-terminus assumed
SMILES: CC[C@H](C)[C@H](NC(=O)[C@H](C)NC(=O)CNC(=O)[C@H](Cc1ccccc1)NC(=O)[C@H](CC(N)=O)NC(=O)[C@@H]1CCCN1C(=O)[C@H](CO)NC(=O)[C@H](CO)NC(=O)[C@H](Cc1c[nH]cn1)NC(=O)[C@H](CCCNC(=N)N)NC(=O)[C@H](CC(C)C)NC(=O)[C@H](Cc1ccccc1)NC(=O)[C@H](Cc1c[nH]cn1)NC(=O)[C@H](C)NC(=O)[C@H](CC(C)C)NC(=O)[C@H](CCCNC(=N)N)NC(=O)[C@H](CCC(N)=O)NC(=O)[C@@H](NC(=O)[C@H](C)NC(=O)[C@@H]1CSSC[C@H](NC(=O)[C@@H](N)CCCCNC(=O)COCCOCCNC(=O)CC[C@H](NC(=O)CCCCCCCCCCCCCCCCCCC(=O)O)C(=O)O)C(=O)N[C@@H](CC(N)=O)C(=O)N[C@@H]([C@@H](C)O)C(=O)N[C@@H](C)C(=O)N[C@@H]([C@@H](C)O)C(=O)N1)[C@@H](C)O)C(=O)N1CCC[C@H]1C(=O)N[C@@H](CO)C(=O)N[C@@H](CO)C(=O)N[C@H](C(=O)N1CCC[C@H]1C(=O)N[C@H](C(=O)NCC(=O)N[C@@H](CO)C(=O)N[C@@H](CC(N)=O)C(=O)N[C@H](C(=O)N[C@@H](Cc1ccc(O)cc1)C(N)=O)[C@@H](C)O)C(C)C)[C@@H](C)O
notes: synthetic analogue of human amylin; also called compound 61
